Assay in all cases: SPR; KD relative to WT C2;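 further: biacore SPR at 37 °C, anti-C2 mAbs captured on an anti-human IgG chip, alanine or serine C2 surface mutants tested, KD from 1:1 fit compared with wild-type C2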
(In general: In SPR one partner is held on a chip, and binding of the other changes the refractive index at the surface.)

One experiment addresses T1, human C2 N327A (human, UniProt P06681 21-752).
T1 sequence: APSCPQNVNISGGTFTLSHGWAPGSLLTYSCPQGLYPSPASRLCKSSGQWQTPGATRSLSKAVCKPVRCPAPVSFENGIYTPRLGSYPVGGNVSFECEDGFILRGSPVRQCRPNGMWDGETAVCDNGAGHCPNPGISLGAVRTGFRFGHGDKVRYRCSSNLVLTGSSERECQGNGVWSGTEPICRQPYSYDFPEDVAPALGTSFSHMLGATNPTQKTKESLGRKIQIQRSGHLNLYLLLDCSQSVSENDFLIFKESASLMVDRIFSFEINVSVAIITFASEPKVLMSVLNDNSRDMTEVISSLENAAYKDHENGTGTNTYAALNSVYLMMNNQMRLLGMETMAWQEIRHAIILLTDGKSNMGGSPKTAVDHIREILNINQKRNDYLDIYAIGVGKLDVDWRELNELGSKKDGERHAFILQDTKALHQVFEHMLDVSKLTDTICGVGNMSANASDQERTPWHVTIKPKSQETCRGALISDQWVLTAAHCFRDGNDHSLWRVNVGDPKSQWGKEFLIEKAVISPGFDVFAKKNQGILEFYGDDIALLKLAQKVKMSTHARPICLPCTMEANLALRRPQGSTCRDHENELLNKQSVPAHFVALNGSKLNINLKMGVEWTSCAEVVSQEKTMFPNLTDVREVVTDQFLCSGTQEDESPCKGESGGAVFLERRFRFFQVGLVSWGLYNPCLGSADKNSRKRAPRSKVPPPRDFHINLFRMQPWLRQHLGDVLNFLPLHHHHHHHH

A further experiment concerns the target T2, human C2 K430A (human, UniProt P06681 21-752).
T2 sequence: T1 sequence with A307N, K410A

The next experiment has as its target T3, human C2 D431A (human, UniProt P06681 21-752).
T3 sequence: T1 sequence with A307N, D411A

The target in a further experiment is T4, human C2 A436S (human, UniProt P06681 21-752).
T4 sequence: T1 sequence with A307N, A416S

Residue numbers refer to the chain shown, from its start.

B1: RF16-214 (antibody, V domains shown)
VH: EVQLLESGGGLVQPGGSLRLSCAASGFTFSWYQMMWVRQAPGKGLEWVSRIYPSGGGTAYADSVKGRFTISRDNSKNTLYLQMNSLRAEDTAVYYCARDAGYGDNWGQGTLVTVSS
VL: QSALTQPPSVSVSPGQTASITCSGDKLGEKYASWYQQKAGQSPVMVIYQDRKRPSGIPERFSGSNSGNTATLTISGTQAMDEADYYCQAWDTRAVVFGGGTKLTVLG
Regarding B1, the Fold diff in the experiment with human C2 N327A came out at 7 fold; with human C2 K430A, 10 fold; with human C2 D431A it was 2 fold; with human C2 A436S, 1 fold.

The values are drawn from US20220332804A1 (CSL INNOVATION, published 2022).
